Positions count from the first letter of the chain named.
Legend:
Experiment in all cases: UV crosslinking
SisCsx1-M2 = molecular target: T1, SisCsx1-M2 (Sulfolobus islandicus Rey15A, UniProt F0NE21 1-454, G95L;A97L;A99L)
T1 sequence: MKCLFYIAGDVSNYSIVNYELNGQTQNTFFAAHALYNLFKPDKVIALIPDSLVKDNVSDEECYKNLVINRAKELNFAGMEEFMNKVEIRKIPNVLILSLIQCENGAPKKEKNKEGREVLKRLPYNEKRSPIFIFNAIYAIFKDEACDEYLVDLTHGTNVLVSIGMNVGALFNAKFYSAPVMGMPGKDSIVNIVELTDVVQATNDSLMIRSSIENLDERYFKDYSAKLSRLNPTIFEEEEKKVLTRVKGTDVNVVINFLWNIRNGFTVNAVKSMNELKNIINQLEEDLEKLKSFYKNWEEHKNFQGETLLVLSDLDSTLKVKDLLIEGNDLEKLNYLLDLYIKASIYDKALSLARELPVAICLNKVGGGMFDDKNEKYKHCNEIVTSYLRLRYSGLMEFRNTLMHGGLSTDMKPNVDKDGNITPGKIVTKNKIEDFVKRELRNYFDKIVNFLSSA

SisCsx1-M3 = molecular target: T2, SisCsx1-M3 (Sulfolobus islandicus Rey15A, UniProt F0NE21 1-454, D50L;S51L)
T2 sequence: T1 sequence with D50L, S51L, L95G, L97A, L99A

SisCsx1-M6 = molecular target: T3, SisCsx1-M6 (Sulfolobus islandicus Rey15A, UniProt F0NE21 1-454, H155L)
T3 sequence: T1 sequence with L95G, L97A, L99A, H155L

Measured: binding result

CGCAAAAAAA (ssRNA) [S3A7]
no binding: SisCsx1-M2 | SisCsx1-M3 | SisCsx1-M6

— article PMC5737841
